Molecular target: RopC-U (thiazoline-containing product of the reaction of RopC with MicD-F) (UniProt P03051)
Assay: SEC

stoichiometry N: 2
Substance: RopC-U (thiazoline-containing product of the reaction of RopC with MicD-F) (from UniProt P03051 1-63) (natural protein)
